Read-outs that look alike come from different tables or passages of the source. Values belong to the binder of their own block, whether it stands above or below them.
How the values were obtained:
[1] = target: human IL4Rα on HEK293T-IL4R/STAT6/STAT6-Luc LB2 cells (human, UniProt P24394 26-825); assay: cell-based or functional assay
[2] = target: T1, human IL4Rα expressed on 293F-IL4Rα cell surface (human, UniProt P24394 26-825); assay: cell-based blocking FACS on 293F-IL4Rα cells; blocked ligand biotin human IL4
T1 construct: whole, on cells; also called human IL4Rα-expressing cells; cell surface IL4R
Procedure: (§1) Then, 1×10⁵ cells per well were incubated in 96 well-plates in 100 μL of serially diluted bispecific antibodies, the positive controls or negative control (starting at 100 nM with a 5-fold serial dilution) in FACS buffer for 40 minutes on ice. […] The plates were washed twice with FACS buffer, and then added and incubated for 40 minutes at 4° C. in dark with 100 μL/well R-Phycoerythrin Streptavidin (1:500 dilution in FACS buffer, Jackson Immunoresearch, Cat #016-110-084). Cells were washed twice and resuspended in FACS buffer. Fluorescence was measured using a Becton Dickinson FACS Canto II-HTS equipment. Data was analyzed using Graphpad Prism and IC₅₀ values were reported.

[3] = target: T2, biotin-labeled human TSLP-Fc (human, biotin-labeled); assay: cell-based blocking FACS: antibody pre-mixed with biotin human TSLP-Fc; blocked binding to cell-surface TSLPR/IL7Ra on HEK293T-TSLPR/IL7R/STAT5-Luc 5C5 cells
T2 construct: also called TSLP-Fc protein; TSLP-Fc-biotin
Procedure: (§2) The cells were prepared following the instruction of lipofectamine 3000 transfection reagent (Thermo Fisher), by transfecting HEK293T cells (ATCC® CRL-11268) with pCMV-T-P plasmids inserted with TSLPR coding sequence between EcoRI and Xba1 sites and pCMV3-SP plasmids inserted with IL7Ra coding sequence between HindIII and Xba1 sites as well as pGL4.52 [luc2P/STAT5RE/Hygro](Promega).
(§3) The cells were harvested from cell culture flasks, washed twice and re-suspended in phosphate buffered saline (PBS) containing 2% v/v Fetal Bovine Serum (FACS buffer). […] Cells were washed twice with FACS buffer, and then added and incubated with 100 μL/well R-Phycoerythrin Streptavidin (1:500 dilution in FACS buffer, Jackson Immunoresearch, Cat #016-110-084) for 40 minutes at 4° C. in dark. Cells were washed twice and re-suspended in FACS buffer. Fluorescence was measured using a Becton Dickinson FACS Canto II-HTS equipment. Data was analyzed using Graphpad Prism and IC₅₀ values were reported.

[4] = target: T3, recombinant human IL4Rα-his (human, UniProt P24394 26-231, limits assumed, biotin-labeled in the capture ELISA); assay: capture ELISA: antibody captured on anti-human IgG Fc F(ab')2, biotin human IL4Rα-his, SA-HRP
T3 construct: In-house made; not shown: His tag at the C-terminus
Procedure: (§4) Briefly, 96-well plates were coated with 2 μg/mL AffiniPure F(ab′)₂ Fragment Goat Anti-Human IgG, Fey fragment specific (Jackson Immuno Research, Cat #109-006-008) in PBS, 100 μL/well, overnight at 4° C. Plates were washed once with wash buffer (PBS+0.05% w/v Tween-20, PBST) and then blocked with 200 μL/well blocking buffer (5% w/v non-fatty milk in PBST) for 2 hours at 37° C. […] After a final wash, plates were incubated with 100 μL/well ELISA substrate TMB (Innoreagents, Cat #TMB-S-002). The reaction was stopped in 10 minutes at 25° C. with 50 μL/well 1M H₂SO₄, and the absorbance was read on a microplate reader using dual wavelength mode with 450 nm for TMB and 630 nm as the reference wavelength. Data was analyzed using Graphpad Prism and EC₅₀ values were reported.

[5] = target: T1, human IL4Rα expressed on 293F-IL4Rα …; assay: flow cytometry on 293F-IL4Rα cells, PE anti-human IgG Fc
Procedure: Cells were washed twice with FACS buffer, and added with 100 μL/well R-Phycoerythrin AffiniPure Goat Anti-Human IgG, Fey fragment specific (1:1000 dilution in FACS buffer, Jackson Immunoresearch, Cat #109-115-098). Following an incubation of 40 minutes at 4° C. in dark, cells were washed three times and resuspended in FACS buffer. Fluorescence was measured using a Becton Dickinson FACS Canto II-HTS equipment. Data was analyzed using Graphpad Prism and EC₅₀ values were reported.

[6] = target: T2, biotin-labeled human TSLP-Fc; assay: cell-based blocking FACS: antibody pre-mixed with biotin human TSLP-Fc; blocked binding to cell-surface TSLPR/IL7Ra on HEK293T-TSLPR/IL7R/STAT5-Luc 5C5 cells; remark: listed apart in the source
Procedure: as §2, §3

[7] = target: T3, recombinant human IL4Rα-his; assay: capture ELISA: antibody captured on anti-human IgG Fc F(ab')2, biotin human IL4Rα-his, SA-HRP; remark: listed apart in the source
Procedure: as §4

[8] = target: T1, human IL4Rα expressed on 293F-IL4Rα …; assay: cell-based blocking FACS on 293F-IL4Rα cells; blocked ligand biotin human IL4; remark: listed apart in the source
Procedure: as §1

- Inhibition on IL4 induced STAT6 phosphorylation (IC50, nM) [1]: 0.0221 nM
- Inhibition on IL13 induced STAT6 phosphorylation (IC50, nM) [1]: 0.0306 nM
- IC50 [2]: 0.204 nM
- IC50 [3]: 1.47 nM
- EC50 [4]: 0.0416 nM
- EC50 [5]: 0.203 nM
B1: BSI-502-003 (bispecific antibody, human IgG1, kappa)
heavy: EVQLVESGGGLVQPGGSLRLSCAASGFTFSTYGMSWVRQAPGKGLVWVATINSNGGSTSYPDSVKGRFTISRDNAKNTLYLQMNSLRAEDTAVYYCARFFRFRNAMDYWGQGTLVTVSSGGGGSGGGGSGGGGSGGGGSDIQMTQSPSSLSASVGDRVTITCRTSENIYSYLAWYQQKPGKAPKFLVYNAKTLAEGVPSRFSGSGSGTDFTLTISSLQPEDFATYYCQHYYGPPTWTFGQGTKVEIKGGGGSGGGGSQVQLVQSGAEVKKPGASVKVSCKASGYTFTTYWMHWVRQAPGQGLEWMGVIDPSDSDTTYNQKFKGRVTMTRDTSTSTVYMELSSLRSEDTAVYYCTRSLDGYYDYWGQGTLVTVSSASTKGPSVFPLAPSSKSTSGGTAALGCLVKDYFPEPVTVSWNSGALTSGVHTFPAVLQSSGLYSLSSVVTVPSSSLGTQTYICNVNHKPSNTKVDKKVEPKSCDKTHTCPPCPAPEAQGGPSVFLFPPKPKDTLYITREPEVTCVVVDVSHEDPEVKFNWYVDGVEVHNAKTKPREEQYNSTYRVVSVLTVLHQDWLNGKEYKCQVSNKALPAPIEKTISKAKGQPREPQVYTLPPSRDELTKNQVSLTCLVKGFYPSDIAVEWESNGQPENNYKTTPPVLDSDGSFFLYSKLTVDKSRWQQGNVFSCSVMHEALHNHYTQKSLSLSPG
light: DIQMTQSPSSLSASVGDRVTITCRPTENIYSYLAWYQQKPGKAPKLLIYFARTLAEGVPSRFSGSGSGTDFTLTISSLQPEDFATYYCQHHYGTPWTFGGGTKVEIKRTVAAPSVFIFPPSDEQLKSGTASVVCLLNNFYPREAKVQWKVDNALQSGNSQESVTEQDSKDSTYSLSSTLTLSKADYEKHKVYACEVTHQGLSSPVTKSFNRGEC
notes: hu1C5F12E9-V8 IgG with an anti-IL4R scFv (huC2C1A1A1-V15, VH-VL) at the N-terminus of the heavy chain; AQQ and YTE already stand in the entry

- IC50 [6]: 1.39 nM
- EC50 [7]: 0.119 nM
- IC50 [8]: 0.381 nM
B2: BSI-502-005 (bispecific antibody, human IgG1, kappa)
heavy: QVQLVQSGAEVKKPGASVKVSCKASGYTFTTYWMHWVRQAPGQGLEWMGVIDPSDSDTTYNQKFKGRVTMTRDTSTSTVYMELSSLRSEDTAVYYCTRSLDGYYDYWGQGTLVTVSSASTKGPSVFPLAPSSKSTSGGTAALGCLVKDYFPEPVTVSWNSGALTSGVHTFPAVLQSSGLYSLSSVVTVPSSSLGTQTYICNVNHKPSNTKVDKKVEPKSCDKTHTCPPCPAPEAQGGPSVFLFPPKPKDTLYITREPEVTCVVVDVSHEDPEVKFNWYVDGVEVHNAKTKPREEQYNSTYRVVSVLTVLHQDWLNGKEYKCQVSNKALPAPIEKTISKAKGQPREPQVYTLPPSRDELTKNQVSLTCLVKGFYPSDIAVEWESNGQPENNYKTTPPVLDSDGSFFLYSKLTVDKSRWQQGNVFSCSVMHEALHNHYTQKSLSLSPGKGGGGSGGGGSEVQLVESGGGLVQPGGSLRLSCAASGFTFSTYGMSWVRQAPGKGLVWVATINSNGGSTSYPDSVKGRFTISRDNAKNTLYLQMNSLRAEDTAVYYCARFFRFRNAMDYWGQGTLVTVSSGGGGSGGGGSGGGGSGGGGSDIQMTQSPSSLSASVGDRVTITCRTSENIYSYLAWYQQKPGKAPKFLVYNAKTLAEGVPSRFSGSGSGTDFTLTISSLQPEDFATYYCQHYYGPPTWTFGQGTKVEIK
light: B1 light
notes: hu1C5F12E9-V8 IgG with an anti-IL4R scFv (VH-VL) at the C-terminus of the heavy chain; AQQ and YTE already stand in the entry

- IC50 [6]: 1.12 nM
- EC50 [7]: 0.0272 nM
- IC50 [8]: 0.199 nM
B3: BSI-502-007 (bispecific antibody, human IgG1, kappa)
heavy: QVQLVQSGAEVKKPGASVKVSCKASGYTFTTYWMHWVRQAPGQGLEWMGVIDPSDSDTTYNQKFKGRVTMTRDTSTSTVYMELSSLRSEDTAVYYCTRSLDGYYDYWGQGTLVTVSSGGGGSGGGGSGGGGSGGGGSDIQMTQSPSSLSASVGDRVTITCRPTENIYSYLAWYQQKPGKAPKLLIYFARTLAEGVPSRFSGSGSGTDFTLTISSLQPEDFATYYCQHHYGTPWTFGGGTKVEIKGGGGSGGGGSEVQLVESGGGLVQPGGSLRLSCAASGFTFSTYGMSWVRQAPGKGLVWVATINSNGGSTSYPDSVKGRFTISRDNAKNTLYLQMNSLRAEDTAVYYCARFFRFRNAMDYWGQGTLVTVSSASTKGPSVFPLAPSSKSTSGGTAALGCLVKDYFPEPVTVSWNSGALTSGVHTFPAVLQSSGLYSLSSVVTVPSSSLGTQTYICNVNHKPSNTKVDKKVEPKSCDKTHTCPPCPAPEAQGGPSVFLFPPKPKDTLYITREPEVTCVVVDVSHEDPEVKFNWYVDGVEVHNAKTKPREEQYNSTYRVVSVLTVLHQDWLNGKEYKCQVSNKALPAPIEKTISKAKGQPREPQVYTLPPSRDELTKNQVSLTCLVKGFYPSDIAVEWESNGQPENNYKTTPPVLDSDGSFFLYSKLTVDKSRWQQGNVFSCSVMHEALHNHYTQKSLSLSPG
light: DIQMTQSPSSLSASVGDRVTITCRTSENIYSYLAWYQQKPGKAPKFLVYNAKTLAEGVPSRFSGSGSGTDFTLTISSLQPEDFATYYCQHYYGPPTWTFGQGTKVEIKRTVAAPSVFIFPPSDEQLKSGTASVVCLLNNFYPREAKVQWKVDNALQSGNSQESVTEQDSKDSTYSLSSTLTLSKADYEKHKVYACEVTHQGLSSPVTKSFNRGEC
notes: huC2C1A1A1-V15 IgG with an anti-TSLP scFv (VH-VL) at the N-terminus of the heavy chain; AQQ and YTE already stand in the entry

- IC50 [6]: 1.13 nM
- EC50 [7]: 0.0323 nM
- IC50 [8]: 0.169 nM
B4: BSI-502-008 (bispecific antibody, human IgG1, kappa)
heavy: DIQMTQSPSSLSASVGDRVTITCRPTENIYSYLAWYQQKPGKAPKLLIYFARTLAEGVPSRFSGSGSGTDFTLTISSLQPEDFATYYCQHHYGTPWTFGGGTKVEIKGGGGSGGGGSGGGGSGGGGSQVQLVQSGAEVKKPGASVKVSCKASGYTFTTYWMHWVRQAPGQGLEWMGVIDPSDSDTTYNQKFKGRVTMTRDTSTSTVYMELSSLRSEDTAVYYCTRSLDGYYDYWGQGTLVTVSSGGGGSGGGGSEVQLVESGGGLVQPGGSLRLSCAASGFTFSTYGMSWVRQAPGKGLVWVATINSNGGSTSYPDSVKGRFTISRDNAKNTLYLQMNSLRAEDTAVYYCARFFRFRNAMDYWGQGTLVTVSSASTKGPSVFPLAPSSKSTSGGTAALGCLVKDYFPEPVTVSWNSGALTSGVHTFPAVLQSSGLYSLSSVVTVPSSSLGTQTYICNVNHKPSNTKVDKKVEPKSCDKTHTCPPCPAPEAQGGPSVFLFPPKPKDTLYITREPEVTCVVVDVSHEDPEVKFNWYVDGVEVHNAKTKPREEQYNSTYRVVSVLTVLHQDWLNGKEYKCQVSNKALPAPIEKTISKAKGQPREPQVYTLPPSRDELTKNQVSLTCLVKGFYPSDIAVEWESNGQPENNYKTTPPVLDSDGSFFLYSKLTVDKSRWQQGNVFSCSVMHEALHNHYTQKSLSLSPG
light: B3 light
notes: huC2C1A1A1-V15 IgG with an anti-TSLP scFv (VL-VH) at the N-terminus of the heavy chain; AQQ and YTE already stand in the entry
